The source of these data is the supplement of paper PMC10126150.

± gives the standard deviation of the averaged measurements.

The data set relates to ATP. The data set is described as follows: switch fluorescence ratio, 500 uM ATP over buffer (Cy3 cluster intensity, sum of 5 cycles each) (fold (ratio)); higher = stronger signal-on switching upon ATP binding; sequences stand for … in TCGTCGGCAGCGTCAGATGTGTATAAGAGACAGTTTTTTTTTTTTTTTTTTTTTTTTT…TC. The settings on record: aptamer strand: ATP DNA aptamer (quencher-CACCTGGGGGAGTATTGCGGAGGAAGG + anchor), 100 nM annealed; ATP concentration: 500 uM. The gist of the method: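 Exposure to 500 uM ATP lasted 15 min at 22 °C before imaging, and a selection-buffer image was taken beforehand, for Cy3-labelled switching-strand clusters on a modified Illumina MiSeq flow-cell annealed to 100 nM quencher-labelled ATP aptamer. Five buffer/ATP cycles were run with NaOH stripping and re-annealing between them. The fluorescence ratio per cluster is summed target-cycle over summed buffer-cycle Cy3 intensity, averaged per switch-domain sequence. Clusters outside 100-1000 RFU were excluded.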
Turning to CTGTATATTT, the switch fluorescence ratio is 0.9593 ± 0.0055.

As to TGATGAGTCG, the switch fluorescence ratio is 1.0211 ± 0.00074.

TTTTCTGACC: the switch fluorescence ratio was found to be 1.02 ± 0.012.

In the case of CGCGGAACTG, the switch fluorescence ratio stood at 1.09 ± 0.016.

For the sequence GGTTTCTACA, the switch fluorescence ratio came to 1 ± 0.034.

As to GTTTTCACGT, the switch fluorescence ratio came out at 1.01 ± 0.013.

For the sequence AGGGTATCTC, the switch fluorescence ratio amounted to 1.08 ± 0.1.

As for TGAAATGATG, the switch fluorescence ratio stood at 0.9977 ± 0.0082.

On to TTGTTATGGT, for which the switch fluorescence ratio came out at 1 ± 0.025.

With TGCAATGGGC, the switch fluorescence ratio was determined as 1.21 ± 0.086.

Take TAAGCGGGG: the switch fluorescence ratio amounted to 1.002 ± 0.0026.

Turning to TGAATTTTAT, the switch fluorescence ratio came to 0.9885 ± 0.0073.

With TCGAGCGAAC, the switch fluorescence ratio turned out to be 2.1 ± 0.53.

Regarding ATGTAGTTAT, the switch fluorescence ratio was determined as 0.996 ± 0.048.

For ATCAGTTTTC, the switch fluorescence ratio was found to be 0.985 ± 0.0013.

For the sequence AAGGAGGTTG, the switch fluorescence ratio was found to be 0.999 ± 0.053.

As to TGTTGGTTTT, the switch fluorescence ratio was determined as 1.02 ± 0.027.

For the sequence CTGAGGGCTG, the switch fluorescence ratio amounted to 1.03 ± 0.028.

Take GCTCTCACTT: the switch fluorescence ratio came out at 1.02 ± 0.043.

Consider GAGCTGGTGG, for which the switch fluorescence ratio amounted to 0.96 ± 0.019.

With GGTTCGGGTG, the switch fluorescence ratio was found to be 1.075 ± 0.0041.

Regarding ATGACCGGGG, the switch fluorescence ratio amounted to 1.02 ± 0.023.

Consider AAATTAAGGG, for which the switch fluorescence ratio stood at 1.02 ± 0.03.

For TTTTGGTGGG, the switch fluorescence ratio came to 0.9972 ± 0.0074.

On to ATAAAGGGGA, for which the switch fluorescence ratio was found to be 0.984 ± 0.038.

Take CGGGGTCGTT: the switch fluorescence ratio amounted to 1 ± 0.024.

ACTTGCTATC: the switch fluorescence ratio was found to be 1.25 ± 0.048.

ATATTCTAGA: the switch fluorescence ratio amounted to 0.989 ± 0.029.

In the case of GATCAGGTCT, the switch fluorescence ratio came out at 0.987 ± 0.032.

As for TGCCTCAGGG, the switch fluorescence ratio amounted to 1.08 ± 0.021.

For GTTTTTTAAC, the switch fluorescence ratio turned out to be 1.01 ± 0.04.

Regarding AATTATGGGG, the switch fluorescence ratio stood at 0.999 ± 0.032.

Take AGTTGTCAGT: the switch fluorescence ratio came to 0.983 ± 0.028.

On to AGGGGCAAGA, for which the switch fluorescence ratio was 1.04 ± 0.032.

As to TTCTCGGCCC, the switch fluorescence ratio worked out at 1.11 ± 0.019.

Take AGAAAGGGCA: the switch fluorescence ratio is 1.04 ± 0.03.

Consider ACTAAATATG, for which the switch fluorescence ratio was determined as 1.05 ± 0.046.

Consider ACAATCGGCG, for which the switch fluorescence ratio was found to be 1.02 ± 0.0072.

For CGCTGGTGGG, the switch fluorescence ratio came out at 1.01 ± 0.029.

In the case of AGTGTAGTCT, the switch fluorescence ratio was 0.961 ± 0.02.

As for AGTTTTGACC, the switch fluorescence ratio turned out to be 1.03 ± 0.059.

Consider CCTTTTGGTG, for which the switch fluorescence ratio turned out to be 1.38 ± 0.44.

As for GAAAAAAGTG, the switch fluorescence ratio came out at 0.994 ± 0.047.

For the sequence GCTGGTGCTT, the switch fluorescence ratio is 0.974 ± 0.022.

For the sequence GTTGTTGGAA, the switch fluorescence ratio is 0.963 ± 0.049.

In the case of GTTGTAATCA, the switch fluorescence ratio was found to be 0.98 ± 0.024.

Turning to TTCCACGTTT, the switch fluorescence ratio was found to be 1.11 ± 0.12.

As for TGCCTTTTCG, the switch fluorescence ratio turned out to be 1.02 ± 0.057.

Turning to GCTTTAACAC, the switch fluorescence ratio amounted to 1.03 ± 0.014.

Take GAGAATCGGT: the switch fluorescence ratio came to 1.03 ± 0.078.

In the case of GGATTAAGGG, the switch fluorescence ratio was 0.993 ± 0.024.

Regarding CTGTACTGGG, the switch fluorescence ratio turned out to be 0.9989 ± 0.0061.

TATCTTTTTC: the switch fluorescence ratio was found to be 1.04 ± 0.084.

Take AATCTGGTGT: the switch fluorescence ratio was found to be 1.02 ± 0.054.

Regarding GACTTCTTAG, the switch fluorescence ratio came out at 0.9573 ± 0.0041.

Turning to CGGCCGAGAG, the switch fluorescence ratio is 1.02 ± 0.018.

Turning to TAGAACGGGG, the switch fluorescence ratio worked out at 0.9978 ± 0.0022.

For TTGGGGAGGG, the switch fluorescence ratio is 1.02 ± 0.05.

For AAAGATTTGT, the switch fluorescence ratio is 0.978 ± 0.016.

Regarding CCGGGTCTGG, the switch fluorescence ratio is 0.992 ± 0.013.

With AAGACTCACG, the switch fluorescence ratio was found to be 1.05 ± 0.052.

Take ATAGTGATAC: the switch fluorescence ratio stood at 3.28 ± 0.057.

In the case of TAGGCTGTTA, the switch fluorescence ratio was found to be 0.995 ± 0.036.

On to TGGGTTTTAG, for which the switch fluorescence ratio turned out to be 0.977 ± 0.013.

As to CGATAGTTAG, the switch fluorescence ratio came to 0.986 ± 0.044.

For the sequence CGTGATTCAC, the switch fluorescence ratio turned out to be 1.007 ± 0.0075.

Take TAAGAGGGCT: the switch fluorescence ratio is 0.996 ± 0.022.

For the sequence GCTGTGCACG, the switch fluorescence ratio is 1.02 ± 0.02.

Turning to TTTTTCTCAG, the switch fluorescence ratio was 1.01 ± 0.031.

Turning to CACTGGAAAA, the switch fluorescence ratio came out at 1.04 ± 0.036.

For the sequence GGGGGCCGCC, the switch fluorescence ratio worked out at 0.988 ± 0.01.

Regarding ATTTTTTGCG, the switch fluorescence ratio is 1 ± 0.028.

In the case of TAGTGGGGGT, the switch fluorescence ratio was determined as 1.01 ± 0.022.

On to ATGCTTATTG, for which the switch fluorescence ratio stood at 0.973 ± 0.015.

TTCATAGCTT: the switch fluorescence ratio was 1.02 ± 0.043.

In the case of ATAGTTATTG, the switch fluorescence ratio is 1.01 ± 0.022.

AAAGTGGCCC: the switch fluorescence ratio was determined as 0.997 ± 0.018.

On to AAGGGGTGGA, for which the switch fluorescence ratio turned out to be 1.01 ± 0.05.

Turning to ACAAGAGGGT, the switch fluorescence ratio was 1.002 ± 0.0051.

Consider GCACATCTGT, for which the switch fluorescence ratio was found to be 0.99 ± 0.056.

On to CCGGTTAGGG, for which the switch fluorescence ratio turned out to be 0.991 ± 0.029.

GGGTAGAATG: the switch fluorescence ratio worked out at 1.02 ± 0.03.

As for AGGATTCGGC, the switch fluorescence ratio is 1.04 ± 0.059.

On to GTCACTATTG, for which the switch fluorescence ratio turned out to be 1.02 ± 0.0022.

Consider CGCGCTACTT, for which the switch fluorescence ratio is 1.73 ± 0.039.

TTTTTTAGCA: the switch fluorescence ratio was determined as 1.02 ± 0.023.

Regarding CCCGGGTTAT, the switch fluorescence ratio worked out at 0.9942 ± 0.0075.

For ATTCATATGT, the switch fluorescence ratio came to 0.999 ± 0.018.

AAGACTGTGC: the switch fluorescence ratio stood at 1.01 ± 0.022.

Turning to GGTTTATTTG, the switch fluorescence ratio is 1.01 ± 0.016.

On to CAATTGGGGA, for which the switch fluorescence ratio was found to be 0.995 ± 0.029.

With GTAGTGTGGT, the switch fluorescence ratio is 0.999 ± 0.012.

As to AAAAAATATT, the switch fluorescence ratio turned out to be 1.029 ± 0.0043.

Take GCGGGGGTTT: the switch fluorescence ratio was 1.15 ± 0.28.

As to GGGCAGACGT, the switch fluorescence ratio stood at 0.971 ± 0.063.

In the case of GGGTTGAACC, the switch fluorescence ratio came out at 0.994 ± 0.032.

For the sequence TGTTTTAGAC, the switch fluorescence ratio is 0.997 ± 0.035.

With AAAGGGGGAT, the switch fluorescence ratio is 1 ± 0.023.

With GCCTTAAAGG, the switch fluorescence ratio is 1.005 ± 0.0029.

Take TTAGTTTCTT: the switch fluorescence ratio came out at 0.999 ± 0.017.

For the sequence TTTTCTCAGC, the switch fluorescence ratio came out at 1.05 ± 0.029.

Regarding AGGTTCGGAG, the switch fluorescence ratio was found to be 1.04 ± 0.06.

In the case of AACCACAGGA, the switch fluorescence ratio was 1.057 ± 0.0019.

In the case of CCAGCGGCCA, the switch fluorescence ratio turned out to be 1.02 ± 0.025.

ATGTGTAACC: the switch fluorescence ratio worked out at 1 ± 0.039.

On to TAGAAAATAA, for which the switch fluorescence ratio came to 0.995 ± 0.021.

Take GGGGCTACTA: the switch fluorescence ratio worked out at 1.01 ± 0.014.

On to AGGGGGAGGG, for which the switch fluorescence ratio was 1.01 ± 0.03.

Take TTCCATCACA: the switch fluorescence ratio worked out at 1.01 ± 0.021.

For ACCTTAAAGA, the switch fluorescence ratio was found to be 0.9915 ± 0.005.

Take TACTTAGA: the switch fluorescence ratio is 1.04 ± 0.015.

Regarding TCATTGGTAA, the switch fluorescence ratio stood at 0.977 ± 0.047.

With TGGACTAGAA, the switch fluorescence ratio was determined as 0.983 ± 0.042.

With TTTCTCATTT, the switch fluorescence ratio came to 0.972 ± 0.021.

With TGCGAAAATT, the switch fluorescence ratio came to 1.01 ± 0.08.

As for AGGGTTTTGG, the switch fluorescence ratio was found to be 0.999 ± 0.03.

For TTGGTTACAC, the switch fluorescence ratio is 1.006 ± 0.0013.

Regarding TTTGTGCTC, the switch fluorescence ratio was found to be 1.13 ± 0.15.

On to ATGTAAAGAC, for which the switch fluorescence ratio came out at 1.05 ± 0.04.

TAAACCGGTT: the switch fluorescence ratio amounted to 0.984 ± 0.027.
